The target in assay [1] is E. coli ribosomes (E. coli). Kind of assay: FRAP (diffusion coefficient in living cells); E. coli cytoplasm, 30°C, 0.28 Osm; fraction bound from the effective diffusion coefficient (Equation 1); Kd per binding site from Equation 2 with 660 µM binding sites assumed.
In assay [2] the target is Hfx. volcanii ribosomes (Haloferax volcanii (endogenous in H1895)). In words: FRAP (diffusion coefficient in living cells); Hfx. volcanii cytoplasm, 30°C; fraction bound from the effective diffusion coefficient; Kd per binding site with the ribosome concentration assumed as in E. coli.
Assay [3] concerns the target L. lactis ribosomes (Lactococcus lactis (endogenous in NZ9000)). Kind of assay: FRAP (diffusion coefficient in living cells); L. lactis cytoplasm, 30°C; fraction bound from the effective diffusion coefficient; Kd per binding site with the ribosome concentration assumed as in E. coli.

pKd: −log10 of the molar value.

In general, pKd refers to the Kd on a negative log10 scale, so that one unit is a factor of ten.

In assay [1], +25 GFP gave a pKd of 5.17 and a fraction bound of 0.99.

Turning to +25 GFP (expressed in Hfx. volcanii), in assay [2], the negative logarithm of the Kd (pKd) was 3.81 and the fraction bound was 0.81.

With +25 GFP (expressed in L. lactis), the negative logarithm of the Kd (pKd) in assay [3] was 4.19.

Source of the values: publication PMC5726854.
